Measured values reported in patent US12655409B2, “Recombinant lysin and its use in the treatment of Gram-negative bacterial infections” (TELUM THERAPEUTICS S.L., priority 2020, dated 2026).

Legend:
E. coli ATCC 25922 = assay: MIC by microdilution in TP-Na 10 mM pH 6.15; type: cell-based, Escherichia coli
Method: The IKB206tags endolysin was purified from the Escherichia coli BL21 (DE3) strain, as previously described.
Checkerboard tests were assessed by the microdilution method, as previously described (Moody JA 1992, Moellering E G., Jr.1996). […] Each microtiter well contained 100 μl of a E. coli inoculum of 1×10^5 CFUs mL^−1, with or without the corresponding compounds, in a final volume of 200 μl of Sodium phosphate (TP-Na) buffer 10 mM pH 6.15 per well and the plates were incubated at 37° C. for 17 h.

[1] = system: E. coli strain ATCC 25922; assay: Enzyme bactericidal activity assay on E. coli ATCC 25922; type: cell-based, Escherichia coli
Method: (§1) Briefly, the different bacterial cultures were incubated in the specific media (Table 1) at 37° C. or 30° C., according to the strain, until reaching an A600 of 0.3. The cells were then deposited by centrifugation (4500×g, 10 min) and washed twice with the corresponding buffer, with the A600 being adjusted to ≈0.3. A volume of 160 μl of the bacterial suspension was transferred to sterile 96-well plates to which there were added 40 μl of the enzyme under study in a range of doses comprised between 1 and 60 μg mL^−1. The control wells were treated with the same volume of buffer […]. The plates were incubated at 37° C. Samples were taken at different times, serial dilutions performed, and they were seeded in plates containing the specific medium to determine viable bacteria. The experiments were repeated at least 3 times. The bactericidal effect of IKB206 (and its variants) was quantified as the number of logs reduced in the presence of treatment, after a given incubation time (log10 (N0/Ni), where N0=number of CFU mL^−1 before treatment, and Ni=number of CFU mL^−1 after the corresponding incubation time in the presence of each treatment).

[2] = system: E. coli strain DSM 17076 with serotype O157: H7; assay: Enzyme bactericidal activity assay on E. coli serotype O157:H7; type: cell-based, Escherichia coli; conditions: 15 μg mL^−1
Method: as §1

[3] = system: M. lysodeikticus lyophilized cells; assay: Enzyme specific activity assay (turbidometric, A450 decrease); type: biochemical, Micrococcus lysodeikticus; conditions: 37° C., 10 mM Na2HPO4/NaH2PO4 pH 6
Method: The specific activity (U mG-1) was determined using a suspension of 0.6 mg mL^−1 of M. lysodeikticus lyophilized cells as substrate resuspended in cold buffer of the enzyme (10 mM Na2HPO4/NaH2PO4, PH 6 for IKB206tags and 50 mM K2HPO4/KH2PO4, pH 6.2 for egg white lysozyme) and incubating this suspension at different concentrations of the enzyme. Egg white lysozyme (Fisher BioReagents™ Lysozyme) was used as a control. Specifically, 100 μL of the M. lysodeikticus suspension were plated, in triplicate, into a multi-well plate and 100 μL of the different enzyme concentrations were added to the corresponding well. The plate was incubated at the appropriate temperature into a thermostated spectrophotometer (37° C. for IKB206tags and 25° C. for egg white lysozyme) and the A450 decrease was monitored over 10 min.
Unit definition: 1 unit is that amount of enzyme needed to catalyze a decrease in absorbance at 450 nm of 0.001/min at the appropriate temperature and pH of each lysozyme in a 1 cm cuvette due to lysis using a ˜0.4-0.6 mg/mL suspension of M. lysodeikticus.

Molecule: C[C@@H](O)[C@H]1C(=O)N2C(C(=O)O)=C(SCCN=CN)C[C@H]12 [Imepenem]
- MIC (E. coli ATCC 25922): 2.34 µg/mL

Molecule: C[C@@H](O)[C@H]1C(=O)N2C(C(=O)O)=C(S[C@@H]3CN[C@H](C(=O)N(C)C)C3)[C@H](C)[C@H]12 [Meropenem]
- MIC (E. coli ATCC 25922): 0.59 µg/mL

B1: IKB206tags: IKB206 with S-tag at the N-terminal end, 6-His tag at the C-terminal end and thrombin cleavage sites; 329 amino acids (protein)
chain: MKETAAAKFERQHMDSPDLGTLVPRGSMAISDPMKTSPNGIAVTKYFESFEARAYPDPATGGKPYTIGFGTTVYPSGAPVRLGDVCTKEQAEKYLQNDLAKFEKIVSDAVRVPLNQGQFDALVSFTYNLGPANLRSSTLLKKLNAGDYAGAAKEFPRWNRANGKVMKGLTRRRAAEQCLFEGMGGASAIERGVAAANSGTPKNVSRGTSSTKTTPKYKVKNGDNLTKIAKKHNTTVATLLKLNPGIKDPNMIRVGQTLNVTGSGGKTHKVKSGDTLSKIAVDNKTTVSKLMNLNPEITNPNHIKVGQTIRLSLGTLVPRGSLEHHHHHH
modifications: S-tag, 6-His tag, thrombin sites; chimeric endolysin (IKB206tags)
notes: IKB206 with S-tag at the N-terminal end, 6-His tag at the C-terminal end and thrombin cleavage sites; 329 amino acids
- reduction in CFU mL^−1 ([1]; 5 μg mL^−1, 15 min of incubation): significant
- incubation time for killing the entire culture ([1]; 15 μg mL^−1): 30 min
- reduction of the number of CFU mL^−1 ([1]; 15 μg mL^−1, 5 minutes of incubation): more than 2 logs
- incubation time for killing the entire culture ([1]; 60 μg mL^−1): 15 min
- bactericidal activity on serotype O157:H7 [2]: significantly reduced the number of E. coli strain DSM 17076 cells, although it was not capable of killing the entire culture
- specific activity [3]: around 8100 U mg^−1

B2: IKB206AD8: putative endolysin from phage Arya alone, catalytic domain of IKB206 without the D8 domain (protein)
chain: MKTSPNGIAVTKYFESFEARAYPDPATGGKPYTIGFGTTVYPSGAPVRLGDVCTKEQAEKYLQNDLAKFEKIVSDAVRVPLNQGQFDALVSFTYNLGPANLRSSTLLKKLNAGDYAGAAKEFPRWNRANGKVMKGLTRRRAAEQCLFEGMGGASAIERGVAAA
modifications: Enterobacter phage Arya; (1)..(163) Endolysin
- bactericidal activity in the absence of the D8 domain [1]: presented bactericidal activity
- incubation times to obtain the same levels of bactericidal activity as IKB206 [1]: longer incubation times were needed
- reduction in CFU/mL ([1]; 15 μg mL^−1, 60 minutes): about 3 log
- reduction in CFU/mL ([1]; 15 μg mL^−1, 180 minutes): about 5 log
